For two molecules, Km, kcat and kcat/Km results are on record in paper PMC10508222, “Elucidation of the stereocontrol mechanisms of the chemical and biosynthetic intramolecular Diels–Alder cycloaddition for the formation of bioactive decalins” (RSC Advances, 2023).

Broadly, the Km is the substrate concentration at which the rate is half of its maximum. The kcat is the number of substrate molecules converted per active site and unit of time at saturation. In general, kcat/Km refers to the turnover number divided by the Michaelis constant.

Test in all cases: purified protein, by the assay type
Common to all, as to conditions: pH 7.5; 25.0 °C

Data set [1] relates to C/C=C/C=C/C=C/C[C@H](C)CC/C=C(\C)C(O)=C1C(=O)C(CO)N(C)C1=O.
Data set [2] concerns C/C=C/C=C/C=C/C[C@@H](C)CC/C=C(\C)C(O)=C1C(=O)C(CO)N(C)C1=O.
Substrate in data set [3]: C/C=C/C=C/C=C/C[C@@H](C)CC/C=C(\C)C(O)=C1C(=O)C(CO)N(C)C1=O
The source holds these as a separate data set.

Regarding Fsa2 (Fusarium sp. FN080326), in data set [1], the Km was 18.07 ± 4.21 µM, the kcat worked out at 84.2 ± 6.58 s⁻¹ and the kcat/Km amounted to 4.67e+06 M⁻¹ s⁻¹. Moreover, in data set [2], the Km came to 25.07 ± 2.98 µM, the kcat came out at 1.01 ± 0.048 s⁻¹ and the kcat/Km worked out at 40200 M⁻¹ s⁻¹.

B1: Phm7 (Pyrenochaetopsis sp.) (protein)
chain: MSEPTSSSSLDITSNCIIETPLQPSDFLPKSANLFPKFPERISVDSWELWEFDTFDTNGSVAFGCSLYRDARGVEQGGFHAEVNALWPDGTHWGETLYFAVSEVVENSDGTTGGKWLSKDGGSITFHIASDYTAAALDFNVPGKVSGTMELRNHANVSPTSNLPASDAEAQLCPGVYYTFPMGPVATSVTATFSSVGANGESRELFISSGYGGMVRGWSARPWPTFMNDAYYVVAQVGPYMLQILRTLGSVFVQHKPFAVARLYLDGSLVSAANTVVGDELTAHADDVKGDAVRLTKVQPDEKSQGLSGKFRDGNVGYVLEFAKKDSEHGWTFQISHKRAVWSEPTSAPGPDGTGKSGWIEAISGGAKGENYEGHGFGGQLQIPVP
Take B1: in data set [3], the Km stood at 38.21 ± 8.23 µM, the kcat is 1.98 s⁻¹ and the kcat/Km came out at 51800 M⁻¹ s⁻¹.
